Assay results published in patent US20220048991A1 (BIOND BIOLOGICS, published 2022).
Numbering of substitutions follows the chain as printed. In names and notes the source's numbering stands.

B1: humanized 15G8 VH1/Vk1 (antibody, IgG4, V domains shown)
VH: DVQLQGSGPGLVKPSETLSLTCSVTGYSITSGYYWNWIRQFPGKKLEWMGYISYDGSNNYNPSLKNRITISRDTSKNQFSLKLNSVTAADTATYYCAHGYSYYYAMDAWGQGTSVTVSS
VL: DIQMTQSTSSLSASVGDRVTITCRTSQDISNYLNWYQQKPGKAVKLLISYTSRLHSGVPSRFSGSGSGTDYTLTISSLQQEDFATYFCQQGNTLPTFGQGTKLEIK
notes: Humanized IgG4 (S228P, L235E), kappa; tested as supernatant of transiently transfected HEK EBNA cells
B2: humanized 15G8 VH1/Vk2 (antibody, IgG4, V domains shown)
VH: B1 VH
VL: B1 VL with T8P, Q80P
notes: as for B1
B3: humanized 15G8 VH1/Vk4 (antibody, IgG4, V domains shown)
VH: B1 VH
VL: B1 VL with T8P, V44P, Q80P
notes: as for B1
B4: humanized 15G8 VH2/Vk1 (antibody, IgG4, V domains shown)
VH: B1 VH with N84S, S114T
VL: B1 VL
notes: as for B1
B5: humanized 15G8 VH2/Vk2 (antibody, IgG4, V domains shown)
VH: B1 VH with N84S, S114T
VL: B1 VL with T8P, Q80P
notes: as for B1
B6: humanized 15G8 VH2/Vk4 (antibody, IgG4, V domains shown)
VH: B1 VH with N84S, S114T
VL: B1 VL with T8P, V44P, Q80P
notes: as for B1
B7: humanized 15G8 VH3/Vk1 (antibody, IgG4, V domains shown)
VH: B1 VH with F41P, K45G, N84S, S114T
VL: B1 VL
notes: as for B1
B8: humanized 15G8 VH3/Vk3 (antibody, IgG4, V domains shown)
VH: B1 VH with F41P, K45G, N84S, S114T
VL: B1 VL with T8P, Q80P, F87Y
notes: as for B1
B9: humanized 15G8 VH4/Vk1 (antibody, IgG4, V domains shown)
VH: B1 VH with D1Q, F41P, K45G, I68V, N84S, S114T
VL: B1 VL
notes: as for B1
B10: humanized 15G8 VH4/Vk3 (antibody, IgG4, V domains shown)
VH: B1 VH with D1Q, F41P, K45G, I68V, N84S, S114T
VL: B1 VL with T8P, Q80P, F87Y
notes: as for B1
B11: humanized 15G8 VH5/Vk1 (antibody, IgG4, V domains shown)
VH: B1 VH with D1Q, S23T, F41P, K45G, M49I, I68V, N84S, S114T
VL: B1 VL
notes: as for B1
B12: humanized 15G8 VH5/Vk2 (antibody, IgG4, V domains shown)
VH: B1 VH with D1Q, S23T, F41P, K45G, M49I, I68V, N84S, S114T
VL: B1 VL with T8P, Q80P
notes: as for B1

What was measured:
[1] = molecular target: T1, recombinant ILT2 (human) (human, UniProt Q8NHL6 24-461); assay: SPR (Biacore T200); KD relative to Control (chimeric 15G8)
T1 construct: also called recombinant ILT2 peptide; ILT2 protein
T1 sequence (Q8NHL6 24-461 limits assumed): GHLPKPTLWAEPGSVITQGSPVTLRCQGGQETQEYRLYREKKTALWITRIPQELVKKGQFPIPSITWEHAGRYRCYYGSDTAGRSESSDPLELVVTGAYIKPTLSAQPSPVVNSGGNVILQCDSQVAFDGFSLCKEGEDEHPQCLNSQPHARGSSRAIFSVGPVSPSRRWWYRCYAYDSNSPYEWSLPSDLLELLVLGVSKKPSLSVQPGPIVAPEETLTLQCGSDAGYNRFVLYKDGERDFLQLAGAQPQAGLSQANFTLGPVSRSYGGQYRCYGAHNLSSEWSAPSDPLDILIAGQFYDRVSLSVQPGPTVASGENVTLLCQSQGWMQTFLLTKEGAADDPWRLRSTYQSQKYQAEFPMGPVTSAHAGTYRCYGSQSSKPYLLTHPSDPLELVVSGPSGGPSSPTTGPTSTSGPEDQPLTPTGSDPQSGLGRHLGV
Protocol: (§1) During grafting of the 15G8 CDRs, five heavy chains and four kappa light chains were generated. These chains were designated VH1-5 and Vk1-4. By combining each heavy chain with each light chain twenty different resultant antibodies are possible. All twenty possible antibodies were transiently expressed in HEK EBNA cells, and the supernatants were tested for binding to recombinant ILT2 peptide using a Biacore T200. The chimeric 15G8 antibody was used as control.

[2] = molecular target: T1, recombinant ILT2 (human); assay: SPR (Biacore T200), HEK EBNA supernatants on recombinant ILT2 peptide
Protocol: as §1

Binder	Relative KD [1]	Kd [2]	koff [2]	kon [2]
B1	0.7	8.77 nM	0.00931 s⁻¹	1.06e+06 M⁻¹ s⁻¹
B2	0.7	8.82 nM	0.00678 s⁻¹	769000 M⁻¹ s⁻¹
B3	1.48	18.7 nM	0.00854 s⁻¹	457000 M⁻¹ s⁻¹
B4	0.76	9.58 nM	0.00728 s⁻¹	760000 M⁻¹ s⁻¹
B5	0.7	8.79 nM	0.0066 s⁻¹	752000 M⁻¹ s⁻¹
B6	1.13	14.2 nM	0.00789 s⁻¹	554000 M⁻¹ s⁻¹
B7	0.68	8.52 nM	0.00681 s⁻¹	799000 M⁻¹ s⁻¹
B8	0.72	9.03 nM	0.00611 s⁻¹	677000 M⁻¹ s⁻¹
B9	0.69	8.66 nM	0.00792 s⁻¹	915000 M⁻¹ s⁻¹
B10	0.75	9.51 nM	0.00843 s⁻¹	886000 M⁻¹ s⁻¹
B11	0.68	8.55 nM	0.00994 s⁻¹	1.16e+06 M⁻¹ s⁻¹
B12	0.6	7.57 nM	0.00954 s⁻¹	1.26e+06 M⁻¹ s⁻¹
